B1: Inhibitor of nuclear factor kappa-B kinase subunit beta (Homo sapiens), O14920 (parent)
chain: MSWSPSLTTQTCGAWEMKERLGTGGFGNVIRWHNQETGEQIAIKQCRQELSPRNRERWCLEIQIMRRLTHPNVVAARDVPEGMQNLAPNDLPLLAMEYCQGGDLRKYLNQFENCCGLREGAILTLLSDIASALRYLHENRIIHRDLKPENIVLQQGEQRLIHKIIDLGYAKELDQGSLCTSFVGTLQYLAPELLEQQKYTVTVDYWSFGTLAFECITGFRPFLPNWQPVQWHSKVRQKSEVDIVVSEDLNGTVKFSSSLPYPNNLNSVLAERLEKWLQLMLMWHPRQRGTDPTYGPNGCFKALDDILNLKLVHILNMVTGTIHTYPVTEDESLQSLKARIQQDTGIPEEDQELLQEAGLALIPDKPATQCISDGKLNEGHTLDMDLVFLFDNSKITYETQISPRPQPESVSCILQEPKRNLAFFQLRKVWGQVWHSIQTLKEDCNRLQQGQRAAMMNLLRNNSCLSKMKNSMASMSQQLKAKLDFFKTSIQIDLEKYSEQTEFGITSDKLLLAWREMEQAVELCGRENEVKLLVERMMALQTDIVDLQRSPMGRKQGGTLDDLEEQARELYRRLREKPRDQRTEGDSQEMVRLLLQAIQSFEKKVRVIYTQLSKTVVCKQKALELLPKVEEVVSLMNEDEKTVVRLQEKRQKELWNLLKIACSKVRGPVSGSPDSMNASRLSQPGQLMSQPSTASNSLPEPAKKSEELVAEAHNLCTLLENAIQDTVREQDQSFTALDWSWLQTEEEEHSCLEQAS
B2: Inhibitor of nuclear factor kappa-B kinase subunit alpha (Homo sapiens), O15111 (parent)
chain: MERPPGLRPGAGGPWEMRERLGTGGFGNVCLYQHRELDLKIAIKSCRLELSTKNRERWCHEIQIMKKLNHANVVKACDVPEELNILIHDVPLLAMEYCSGGDLRKLLNKPENCCGLKESQILSLLSDIGSGIRYLHENKIIHRDLKPENIVLQDVGGKIIHKIIDLGYAKDVDQGSLCTSFVGTLQYLAPELFENKPYTATVDYWSFGTMVFECIAGYRPFLHHLQPFTWHEKIKKKDPKCIFACEEMSGEVRFSSHLPQPNSLCSLVVEPMENWLQLMLNWDPQQRGGPVDLTLKQPRCFVLMDHILNLKIVHILNMTSAKIISFLLPPDESLHSLQSRIERETGINTGSQELLSETGISLDPRKPASQCVLDGVRGCDSYMVYLFDKSKTVYEGPFASRSLSDCVNYIVQDSKIQLPIIQLRKVWAEAVHYVSGLKEDYSRLFQGQRAAMLSLLRYNANLTKMKNTLISASQQLKAKLEFFHKSIQLDLERYSEQMTYGISSEKMLKAWKEMEEKAIHYAEVGVIGYLEDQIMSLHAEIMELQKSPYGRRQGDLMESLEQRAIDLYKQLKHRPSDHSYSDSTEMVKIIVHTVQSQDRVLKELFGHLSKLLGCKQKIIDLLPKVEVALSNIKEADNTVMFMQGKRQKEIWHLLKIACTQSSARSLVGSSLEGAVTPQTSAWLPPTSAEHDHSLSCVVTPQDGETSAQMIEENLNCLGHLSTIIHEANEEQGNSMMNLDWSWLTE

Variants of: B1
Conditions: with ikba_human NFKBIA

**Q.** K44A was tested. Which “effect of a mutation on the interaction” value did it give?
**A.** decreasing interaction

Variants of: B2
Conditions: with ikba_human NFKBIA

**Q.** K44M was tested. Which “effect of a mutation on the interaction” value did it give?
**A.** disrupting interaction

Reference: IntAct's records for PubMed 12486103
